Data taken from publication PMC9482650, “Quantitative fragmentomics allow affinity mapping of interactomes” (Nature Communications, 2022).

molecular target: PTPN3, P26045; assay: holdup assay; design: key: below the threshold = too weak to quantify, mostly under pKd 3.1 to 4; conditions: plain residues with an end cap or a label only (N-terminal biotin on a linker: ado-ado)
Sequence (P26045 505-587): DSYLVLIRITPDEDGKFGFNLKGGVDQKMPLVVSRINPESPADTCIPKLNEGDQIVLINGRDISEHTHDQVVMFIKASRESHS

Binder	pKd
NISARRFTLC [FAM167B, Q9BTA0]	3.61

molecular target: GRID2IP_1, A4D2P6; assay: holdup assay; design: key: below the threshold = too weak to quantify, mostly under pKd 3.1 to 4; conditions: plain residues with an end cap or a label only (N-terminal biotin on a linker: ado-ado)
Sequence (A4D2P6 1-87): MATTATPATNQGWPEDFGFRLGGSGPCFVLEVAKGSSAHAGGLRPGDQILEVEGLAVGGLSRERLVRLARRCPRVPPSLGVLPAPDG

Binder	pKd
NISARRFTLC [FAM167B, Q9BTA0]	below the threshold

molecular target: T1, APBA1_1, Q02410; assay: holdup assay; design: key: below the threshold = too weak to quantify, mostly under pKd 3.1 to 4; conditions: plain residues with an end cap or a label only (N-terminal biotin on a linker: ado-ado)
T1 sequence (Q02410 651-752, limits assumed, looked up): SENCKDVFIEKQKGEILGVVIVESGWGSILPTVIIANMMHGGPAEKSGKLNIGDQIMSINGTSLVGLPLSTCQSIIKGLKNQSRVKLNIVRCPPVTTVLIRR

Binder	pKd
NISARRFTLC [FAM167B, Q9BTA0]	below the threshold

molecular target: PARD3_3, Q8TEW0; assay: holdup assay; design: key: below the threshold = too weak to quantify, mostly under pKd 3.1 to 4; conditions: plain residues with an end cap or a label only (N-terminal biotin on a linker: ado-ado)
Sequence (Q8TEW0 582-685): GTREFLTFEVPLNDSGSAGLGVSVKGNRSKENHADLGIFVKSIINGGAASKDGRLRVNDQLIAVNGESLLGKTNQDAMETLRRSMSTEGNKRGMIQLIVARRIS

Binder	pKd
NISARRFTLC [FAM167B, Q9BTA0]	below the threshold

molecular target: SCRIB_2, Q14160; assay: holdup assay; design: key: below the threshold = too weak to quantify, mostly under pKd 3.1 to 4; conditions: plain residues with an end cap or a label only (N-terminal biotin on a linker: ado-ado)
Sequence (Q14160 857-960): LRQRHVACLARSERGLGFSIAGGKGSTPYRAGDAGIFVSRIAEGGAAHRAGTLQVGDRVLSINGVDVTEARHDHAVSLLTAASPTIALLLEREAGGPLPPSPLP

Binder	pKd
NISARRFTLC [FAM167B, Q9BTA0]	below the threshold

molecular target: T2, ARHGEF11, O15085; assay: holdup assay; design: key: below the threshold = too weak to quantify, mostly under pKd 3.1 to 4; conditions: plain residues with an end cap or a label only (N-terminal biotin on a linker: ado-ado)
T2 sequence (O15085 42-136, limits assumed, looked up): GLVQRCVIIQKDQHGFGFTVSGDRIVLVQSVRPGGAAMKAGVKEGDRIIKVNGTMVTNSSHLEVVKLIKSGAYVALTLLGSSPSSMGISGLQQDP

Binder	pKd
NISARRFTLC [FAM167B, Q9BTA0]	3.86

molecular target: MAGI2_3, Q86UL8; assay: holdup assay; design: key: below the threshold = too weak to quantify, mostly under pKd 3.1 to 4; conditions: plain residues with an end cap or a label only (N-terminal biotin on a linker: ado-ado)
Sequence (Q86UL8 600-682): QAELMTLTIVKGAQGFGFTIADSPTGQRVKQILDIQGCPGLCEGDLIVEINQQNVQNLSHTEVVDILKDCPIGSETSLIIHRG

Binder	pKd
NISARRFTLC [FAM167B, Q9BTA0]	3.81

molecular target: T3, RAPGEF6, Q8TEU7; assay: holdup assay; design: key: below the threshold = too weak to quantify, mostly under pKd 3.1 to 4; conditions: plain residues with an end cap or a label only (N-terminal biotin on a linker: ado-ado)
T3 sequence (Q8TEU7 525-625, limits assumed, looked up): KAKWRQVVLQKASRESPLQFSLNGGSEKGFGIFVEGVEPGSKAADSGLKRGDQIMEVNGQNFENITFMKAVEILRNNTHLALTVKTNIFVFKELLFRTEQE

Binder	pKd
NISARRFTLC [FAM167B, Q9BTA0]	below the threshold

molecular target: PDLIM1, O00151; assay: holdup assay; design: key: below the threshold = too weak to quantify, mostly under pKd 3.1 to 4; conditions: plain residues with an end cap or a label only (N-terminal biotin on a linker: ado-ado)
Sequence (O00151 1-87): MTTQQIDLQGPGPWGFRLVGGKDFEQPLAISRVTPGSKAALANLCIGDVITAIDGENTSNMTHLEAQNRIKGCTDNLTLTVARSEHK

Binder	pKd
NISARRFTLC [FAM167B, Q9BTA0]	below the threshold

molecular target: T4, LIN7C, Q9NUP9; assay: holdup assay; design: key: below the threshold = too weak to quantify, mostly under pKd 3.1 to 4; conditions: plain residues with an end cap or a label only (N-terminal biotin on a linker: ado-ado)
T4 sequence (Q9NUP9 88-185, limits assumed, looked up): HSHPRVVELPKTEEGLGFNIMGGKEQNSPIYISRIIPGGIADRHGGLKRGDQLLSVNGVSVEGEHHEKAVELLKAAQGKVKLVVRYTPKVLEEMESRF

Binder	pKd
NISARRFTLC [FAM167B, Q9BTA0]	below the threshold

molecular target: LDB3, O75112; assay: holdup assay; design: key: below the threshold = too weak to quantify, mostly under pKd 3.1 to 4; conditions: plain residues with an end cap or a label only (N-terminal biotin on a linker: ado-ado)
Sequence (O75112 1-94): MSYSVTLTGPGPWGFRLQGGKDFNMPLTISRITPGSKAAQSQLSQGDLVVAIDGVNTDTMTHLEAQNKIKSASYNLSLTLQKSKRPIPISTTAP

Binder	pKd
NISARRFTLC [FAM167B, Q9BTA0]	below the threshold

molecular target: MAGI2_4, Q86UL8; assay: holdup assay; design: key: below the threshold = too weak to quantify, mostly under pKd 3.1 to 4; conditions: plain residues with an end cap or a label only (N-terminal biotin on a linker: ado-ado)
Sequence (Q86UL8 772-865): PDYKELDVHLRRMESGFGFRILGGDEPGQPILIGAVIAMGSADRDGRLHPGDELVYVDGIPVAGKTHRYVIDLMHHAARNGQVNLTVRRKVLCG

Binder	pKd
NISARRFTLC [FAM167B, Q9BTA0]	3.63

molecular target: Inadl_2, Q8NI35; assay: holdup assay; design: key: below the threshold = too weak to quantify, mostly under pKd 3.1 to 4; conditions: plain residues with an end cap or a label only (N-terminal biotin on a linker: ado-ado)
Sequence (Q8NI35 238-335): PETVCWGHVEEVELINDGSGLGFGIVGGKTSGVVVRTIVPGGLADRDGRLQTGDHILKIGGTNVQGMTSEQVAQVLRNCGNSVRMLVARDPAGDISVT

Binder	pKd
NISARRFTLC [FAM167B, Q9BTA0]	below the threshold

molecular target: T5, LRRC7, Q96NW7; assay: holdup assay; design: key: below the threshold = too weak to quantify, mostly under pKd 3.1 to 4; conditions: plain residues with an end cap or a label only (N-terminal biotin on a linker: ado-ado)
T5 sequence (Q96NW7 1440-1537, limits assumed, looked up): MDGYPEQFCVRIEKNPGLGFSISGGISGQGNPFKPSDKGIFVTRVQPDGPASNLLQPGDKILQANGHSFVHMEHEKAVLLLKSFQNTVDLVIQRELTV

Binder	pKd
NISARRFTLC [FAM167B, Q9BTA0]	below the threshold

molecular target: T6, ARHGAP21, Q5T5U3; assay: holdup assay; design: key: below the threshold = too weak to quantify, mostly under pKd 3.1 to 4; conditions: plain residues with an end cap or a label only (N-terminal biotin on a linker: ado-ado)
T6 sequence (Q5T5U3 45-169, limits assumed, looked up): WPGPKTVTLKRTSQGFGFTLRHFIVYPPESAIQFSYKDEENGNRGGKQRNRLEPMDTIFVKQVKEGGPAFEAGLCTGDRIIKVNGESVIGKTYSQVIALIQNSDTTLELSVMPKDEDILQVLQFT

Binder	pKd
NISARRFTLC [FAM167B, Q9BTA0]	below the threshold

molecular target: T7, APBA1_2, Q02410; assay: holdup assay; design: key: below the threshold = too weak to quantify, mostly under pKd 3.1 to 4; conditions: plain residues with an end cap or a label only (N-terminal biotin on a linker: ado-ado)
T7 sequence (Q02410 742-832, limits assumed, looked up): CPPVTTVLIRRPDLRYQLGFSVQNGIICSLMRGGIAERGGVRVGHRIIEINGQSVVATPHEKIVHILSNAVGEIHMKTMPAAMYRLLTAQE

Binder	pKd
NISARRFTLC [FAM167B, Q9BTA0]	below the threshold

molecular target: DLG4_1, P78352; assay: holdup assay; design: key: below the threshold = too weak to quantify, mostly under pKd 3.1 to 4; conditions: plain residues with an end cap or a label only (N-terminal biotin on a linker: ado-ado)
Sequence (P78352 62-152): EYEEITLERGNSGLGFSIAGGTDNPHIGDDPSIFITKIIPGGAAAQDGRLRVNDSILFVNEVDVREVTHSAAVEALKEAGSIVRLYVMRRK

Binder	pKd
NISARRFTLC [FAM167B, Q9BTA0]	4.35

molecular target: T8, LNX2_3, Q8N448; assay: holdup assay; design: key: below the threshold = too weak to quantify, mostly under pKd 3.1 to 4; conditions: plain residues with an end cap or a label only (N-terminal biotin on a linker: ado-ado)
T8 sequence (Q8N448 463-564, limits assumed, looked up): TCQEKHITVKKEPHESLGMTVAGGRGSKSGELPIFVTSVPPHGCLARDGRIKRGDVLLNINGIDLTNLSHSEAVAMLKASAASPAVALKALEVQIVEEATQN

Binder	pKd
NISARRFTLC [FAM167B, Q9BTA0]	below the threshold

molecular target: FRMPD2_2, Q68DX3; assay: holdup assay; design: key: below the threshold = too weak to quantify, mostly under pKd 3.1 to 4; conditions: plain residues with an end cap or a label only (N-terminal biotin on a linker: ado-ado)
Sequence (Q68DX3 944-1038): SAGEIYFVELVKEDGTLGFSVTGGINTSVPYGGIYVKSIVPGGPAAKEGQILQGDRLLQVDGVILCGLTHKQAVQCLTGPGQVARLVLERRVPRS

Binder	pKd
NISARRFTLC [FAM167B, Q9BTA0]	3.67

molecular target: MAGI3_2, Q5TCQ9; assay: holdup assay; design: key: below the threshold = too weak to quantify, mostly under pKd 3.1 to 4; conditions: plain residues with an end cap or a label only (N-terminal biotin on a linker: ado-ado)
Sequence (Q5TCQ9 398-503): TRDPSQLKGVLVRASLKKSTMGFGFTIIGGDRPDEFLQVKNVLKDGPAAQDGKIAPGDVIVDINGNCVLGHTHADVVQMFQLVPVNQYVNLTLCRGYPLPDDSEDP

Binder	pKd
NISARRFTLC [FAM167B, Q9BTA0]	4.67

molecular target: T9, SHANK1, Q9Y566; assay: holdup assay; design: key: below the threshold = too weak to quantify, mostly under pKd 3.1 to 4; conditions: plain residues with an end cap or a label only (N-terminal biotin on a linker: ado-ado)
T9 sequence (Q9Y566 658-767, limits assumed, looked up): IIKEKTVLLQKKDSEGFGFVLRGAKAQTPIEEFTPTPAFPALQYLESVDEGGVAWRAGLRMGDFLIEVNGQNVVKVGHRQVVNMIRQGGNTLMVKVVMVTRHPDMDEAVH

Binder	pKd
NISARRFTLC [FAM167B, Q9BTA0]	below the threshold

molecular target: NHERF4_2, Q86UT5; assay: holdup assay; design: key: below the threshold = too weak to quantify, mostly under pKd 3.1 to 4; conditions: plain residues with an end cap or a label only (N-terminal biotin on a linker: ado-ado)
Sequence (Q86UT5 220-308): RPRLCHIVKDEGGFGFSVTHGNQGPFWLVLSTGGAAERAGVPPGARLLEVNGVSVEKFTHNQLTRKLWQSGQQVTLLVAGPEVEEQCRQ

Binder	pKd
NISARRFTLC [FAM167B, Q9BTA0]	below the threshold

molecular target: DLG2_3, Q15700; assay: holdup assay; design: key: below the threshold = too weak to quantify, mostly under pKd 3.1 to 4; conditions: plain residues with an end cap or a label only (N-terminal biotin on a linker: ado-ado)

Binder	pKd
NISARRFTLC [FAM167B, Q9BTA0]	4.43

molecular target: T10, TJP3_3, O95049; assay: holdup assay; design: key: below the threshold = too weak to quantify, mostly under pKd 3.1 to 4; conditions: plain residues with an end cap or a label only (N-terminal biotin on a linker: ado-ado)
T10 sequence (O95049 375-456, limits assumed, looked up): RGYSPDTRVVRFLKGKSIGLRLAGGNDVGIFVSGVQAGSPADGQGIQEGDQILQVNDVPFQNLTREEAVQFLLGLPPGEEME

Binder	pKd
NISARRFTLC [FAM167B, Q9BTA0]	below the threshold

molecular target: Inadl_4, Q8NI35; assay: holdup assay; design: key: below the threshold = too weak to quantify, mostly under pKd 3.1 to 4; conditions: plain residues with an end cap or a label only (N-terminal biotin on a linker: ado-ado)
Sequence (Q8NI35 547-651): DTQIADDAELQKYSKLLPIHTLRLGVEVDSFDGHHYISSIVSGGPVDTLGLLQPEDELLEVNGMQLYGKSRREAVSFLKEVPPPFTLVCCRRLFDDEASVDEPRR

Binder	pKd
NISARRFTLC [FAM167B, Q9BTA0]	below the threshold

molecular target: Inadl_8, Q8NI35; assay: holdup assay; design: key: below the threshold = too weak to quantify, mostly under pKd 3.1 to 4; conditions: plain residues with an end cap or a label only (N-terminal biotin on a linker: ado-ado)
Sequence (Q8NI35 1425-1530): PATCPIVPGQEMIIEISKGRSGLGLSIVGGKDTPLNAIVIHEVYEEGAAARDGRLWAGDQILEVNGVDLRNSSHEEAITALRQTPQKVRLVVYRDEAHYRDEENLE

Binder	pKd
NISARRFTLC [FAM167B, Q9BTA0]	3.54

molecular target: FRMPD2_1, Q68DX3; assay: holdup assay; design: key: below the threshold = too weak to quantify, mostly under pKd 3.1 to 4; conditions: plain residues with an end cap or a label only (N-terminal biotin on a linker: ado-ado)
Sequence (Q68DX3 770-861): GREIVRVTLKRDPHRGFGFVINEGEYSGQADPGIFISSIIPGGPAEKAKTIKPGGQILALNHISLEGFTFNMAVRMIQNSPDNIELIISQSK

Binder	pKd
NISARRFTLC [FAM167B, Q9BTA0]	4.1

molecular target: NHERF4_1, Q86UT5-2; assay: holdup assay; design: key: below the threshold = too weak to quantify, mostly under pKd 3.1 to 4; conditions: plain residues with an end cap or a label only (N-terminal biotin on a linker: ado-ado)
Sequence (Q86UT5 other isoform, or with tags, fused parts or gaps): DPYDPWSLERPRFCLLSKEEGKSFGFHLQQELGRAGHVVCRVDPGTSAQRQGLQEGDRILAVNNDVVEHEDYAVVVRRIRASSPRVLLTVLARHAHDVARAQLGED

Binder	pKd
NISARRFTLC [FAM167B, Q9BTA0]	4.27
